Molecular target: human lysyl-tRNA synthetase anticodon-binding domain (hLysRS ACB) (Homo sapiens, UniProt Q15046 91-216)
Test: fluorescence anisotropy

human lysyl-tRNA synthetase anticodon-binding domain (hLysRS ACB), sequence (Q15046 91-216): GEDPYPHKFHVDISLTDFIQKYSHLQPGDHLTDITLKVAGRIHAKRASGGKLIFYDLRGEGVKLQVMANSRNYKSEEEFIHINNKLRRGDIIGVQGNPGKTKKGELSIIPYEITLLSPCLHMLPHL

B1: C9 (ssRNA)
RNA: CCCCCCCCC
  binding signal: ~100 fold lower affinity than U9

Reference: PMC5113203
